Where “and” joins values, the source holds several entries; their conditions need not be identical. Equal entries are not always repeated.
Target: the molecule itself
Assay: SEC

B1: HEV P^+ (modified protruding (P) protein of hepatitis E virus with C-terminal cysteine-containing peptide) (domain or fragment)
chain: PTPSPAPSRPFSVLRANDVLWLSLTAAEYDQTTYGSSTNPMYVSDTVTLVNVATGAQAVARSLDWSKVTLDGRPLTTIQQYSKTFYVLPLRGKLSFWEAGTTKAGYPYNYNTTASDQILIENAAGHRVAISTYTTSLGAGPTSISAVGVLAPHSALAVLEDTIDYPCDCRGDCFC
- stoichiometry N: 2 and 4
